We go through 1 molecule from patent US20180021429A1, “ANTICANCER AGENTS OR ANTIMETASTATIC AGENTS USING FSTL1 AND COMBINATION DRUG THEREOF” (PHARMA FOODS INTERNATIONAL CO., LTD., priority 2015, published 2018).

Assay [1] concerns Treg induction caused by FSTL1. The assay is described as follows: Treg induction inhibitory activity using human peripheral blood cells (Example 25). It counts as cell-based. The note with it: human PBMCs; FSTL1 5 ng/ml; antibody 5 μg/mL; 3 days. On the procedure:
(§1) Human peripheral blood cells (1×10^6 cells) were stimulated using FSTL1 (5 ng/ml), supplemented with the antibody (5 μg/mL), and cultured for 3 days. The percentage of a Foxp3^+CTLA4^+ cell fraction (Exp. 1) or a CD4^+Foxp3^+CTLA4^+ cell fraction (Exp. 2) in CD4^+ T cells was analyzed as Treg cells by flow cytometry. The flow cytometry conditions are as follows.
Blood was collected from a healthy person by the addition of a 1/10 amount of 4% sodium citrate, then layered on Ficoll (specific gravity: 1.090), and centrifuged (1500 rpm, 20 min, room temperature), and a cell fraction present in an intermediate layer was used as “PBMCs”. The antibody (5 μg/mL) was added to a system in which these PBMCs (1×10^4 cells) were cultured for 3 days under stimulation with FSTL1 (5 ng/ml) in a 24-well plate. PBMCs recovered from the culture system were incubated at 4° C. for 1 hour using an anti-CD4 antibody (BD Pharmingen/Becton, Dickinson and Company), an anti-CD25 antibody (BD Pharmingen/Becton, Dickinson and Company), and an anti-FoxP3 antibody (eBioscience). Then, the percentage of a Foxp3+CTLA4+ cell fraction (Exp. 1) or a CD4+Foxp3+CTLA4+ cell fraction (Exp. 2) in CD4+ T cells contained therein was analyzed as Treg cells using a flow cytometer FACScan (Becton, Dickinson and Company).

Assay [2] deals with mouse breast cancer 4T1 cells. The assay is described as follows: Mouse breast cancer 4T1 cell-transplanted model (Example 21). Conditions: BALB/c mice; intraperitoneal 10 mg/kg on days 4 and 7; FIG. 109. It counts as in vivo. On the procedure:
Procedures and methods of the experiment were basically performed according to Examples 17 to 20 under substantially the same conditions as in the bone metastasis model experiments of Examples 17 to 20. Drug efficacy evaluation was conducted using mouse tumor models other than Snail-positive tumor bone metastasis models. The drug efficacy of the anti-FSTL1 antibody was evaluated using cancer-bearing models of BALB/c mice different in strain from the C57BL/6 mice used in the preceding tests. Changes were made as follows. • Day 0: transplantation of tumor cells (5×10^5 cells subcutaneously & 5×10^5 cells intravenously) • Days 4 and 7: intraperitoneal administration of the antibody (10 mg/kg) • Day 14: drug efficacy evaluation (subcutaneous tumor growth)
The tumor volumes of the mice were measured 4, 7, 11, and 14 days after tumor implantation.

For a further assay, the system named is mouse melanoma B16-F10. Description: In vivo, mouse melanoma B16-F10 (Example 22). How it is done:
The drug efficacy of the anti-FSTL1 antibody was evaluated according to Examples 17 to 20 using other cancer-bearing models of C57BL/6 mice of the same strain as in Snail-positive tumor bone metastasis models. The “mouse melanoma B16-F10” is a parent line of the cell line forced to express Snail, which was transplanted in the bone metastasis models used in the preceding tests.
1. Experiment Group (n=5) • 1. Mouse melanoma B16-F10+control IgG (anti-DNP mAb) • 2. Mouse melanoma B16-F10+anti-FSTL1 mAb (#6-55)
• Day 0: transplantation of tumor cells (1×10^6 cells subcutaneously & 1×10^6 cells intravenously) • Day 3: intraperitoneal administration of the antibody (first dose, corresponding to 200 μg/mouse=10 mg/kg) • Day 6: intraperitoneal administration of the antibody (second dose, corresponding to 200 μg/mouse=10 mg/kg) • Day 15 various immunological assays
• Effects on the growth of subcutaneous tumor (calculation of tumor volume by tumor size measurement): measured 6, 10, and 14 days after tumor implantation (FIG. 46A) • Effects on weight loss (FIG. 46B)
• Effects on the growth of subcutaneous tumor (calculation of tumor volume by tumor size measurement): measured 6, 10, and 14 days after tumor implantation (FIG. 78A) • Effects on weight loss (FIG. 78B)

The next assay concerns the target T1, FSTL1 (Homo sapiens, UniProt Q12841).
T1 sequence (Q12841 21-308): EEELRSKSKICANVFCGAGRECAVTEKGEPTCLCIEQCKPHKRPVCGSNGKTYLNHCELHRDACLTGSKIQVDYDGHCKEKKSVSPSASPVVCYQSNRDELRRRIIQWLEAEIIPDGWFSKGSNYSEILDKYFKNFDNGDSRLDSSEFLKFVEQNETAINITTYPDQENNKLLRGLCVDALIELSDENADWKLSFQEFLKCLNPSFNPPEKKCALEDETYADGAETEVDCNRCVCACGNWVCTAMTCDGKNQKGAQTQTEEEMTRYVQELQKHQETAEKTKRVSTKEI
The assay is described as follows: Treg induction inhibitory activity using human peripheral blood cells stimulated with FSTL1. It counts as cell-based. Also on record: purchased R&D Systems, Inc. 1694-FN-050. Conditions: human PBMCs; FSTL1 5 ng/ml; antibody 5 μg/mL; 3 days. How it is done:
as §1
Blood was collected from a healthy person by the addition of a 1/10 amount of 4% sodium citrate, then layered on Ficoll (specific gravity: 1.090), and centrifuged (1500 rpm, 20 min, room temperature), and a cell fraction present in an intermediate layer was used as “PBMCs”. The antibody (5 μg/mL) was added to a system in which these PBMCs (1×10^6 cells) were cultured for 3 days under stimulation with FSTL1 (5 ng/ml) in a 24-well plate. […] Then, the percentage of a Foxp3+CTLA4+ cell fraction (Exp. 1) or a CD4^+Foxp3^+CTLA4^+ cell fraction (Exp. 2) in CD4+ T cells contained therein was analyzed as Treg cells using a flow cytometer FACScan (Becton, Dickinson and Company).
Human peripheral blood cells (1×10^6 cells) were stimulated using FSTL1 (5 ng/ml), supplemented with the antibody (5 μg/mL), and cultured for 3 days. The percentage of a Foxp3^+ CTLA4^+ cell fraction (Exp. 1) or a CD4^+Foxp3^+CTLA4^+ cell fraction (Exp. 2) in CD4^+ T cells was analyzed as Treg cells by flow cytometry. […]

B1: #6-55: chicken-mouse chimeric anti-FSTL1 antibody clone; variable regions SEQ ID NO: 783 (light), 785 (heavy) (antibody, V domains shown)
VH: AVTLDESGGGLQTPGGALSLVCKGSGFTFTSVTMQWVRQAPGKGLEWVASVCSGSSTYYAPAVKGRATISRDNGQSTVRLQLSNLRPEDTGTYYCAKIAGRARWSCTSAAYNIDAWGHGTEVIVSS
VL: ASTQPSSVSAIPGETVKITCSGGGNNYGWYQQRSPGSAPVTVIYYNDNRPSNIPSRFSGSTSGSTSTLTITGVQADDEAIYYCGSWDSNTDSGIFGAGTTLTVL
modifications: mouse constant regions
For the molecule B1, in assay [1], the “Treg induction by FSTL1 (Foxp3+CTLA4+ / CD4+Foxp3+CTLA4+ cell fraction)” value was “significantly suppressed”. The “growth of 4T1 subcutaneous tumor” value in assay [2] is reported as “significantly suppressed”. Further, the weight loss result in the assay with mouse melanoma B16-F10 (intraperitoneal 10 mg/kg on days 3 and 6) is on record as “suppressive activity against weight loss was also exhibited”. The subcutaneous tumor growth result in the assay on mouse melanoma B16-F10 (intraperitoneal 10 mg/kg on days 3 and 6, vs control antibody) is “strongly suppressed”. In addition, in the assay with FSTL1, the “Treg induction caused by FSTL1 (Foxp3+CTLA4+ fraction in CD4+ T cells)” value is listed as “significantly suppressed”.
